Results from PMC11445563.

Columns and labels:
[1] = biological target: Flag-tagged human melanocortin-3 receptor (MC3R) on HEK293T cells (human) (UniProt P41968)
[2] = biological target: Flag-tagged human melanocortin-5 receptor (MC5R) on HEK293T cells (human) (UniProt P33032)
UniProt P33032, sequence (P33032 whole entry): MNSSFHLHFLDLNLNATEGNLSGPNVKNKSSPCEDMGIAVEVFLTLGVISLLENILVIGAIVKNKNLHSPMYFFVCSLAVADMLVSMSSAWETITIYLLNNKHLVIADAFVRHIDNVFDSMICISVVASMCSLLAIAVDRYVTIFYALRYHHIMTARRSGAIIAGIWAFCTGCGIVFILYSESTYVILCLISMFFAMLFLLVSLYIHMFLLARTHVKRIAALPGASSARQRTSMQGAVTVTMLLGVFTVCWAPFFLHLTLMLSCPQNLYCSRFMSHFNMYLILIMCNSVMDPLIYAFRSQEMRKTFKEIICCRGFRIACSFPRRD

UniProt P41968, sequence (P41968 whole entry): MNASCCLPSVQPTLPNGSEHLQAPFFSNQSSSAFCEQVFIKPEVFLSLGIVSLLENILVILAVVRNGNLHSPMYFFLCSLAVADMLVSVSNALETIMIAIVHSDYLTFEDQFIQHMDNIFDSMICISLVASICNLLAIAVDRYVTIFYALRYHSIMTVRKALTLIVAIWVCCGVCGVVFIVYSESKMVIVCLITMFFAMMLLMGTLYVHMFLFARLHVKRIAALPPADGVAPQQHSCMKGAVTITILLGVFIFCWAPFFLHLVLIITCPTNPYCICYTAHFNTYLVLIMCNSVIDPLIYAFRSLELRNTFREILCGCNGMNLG

With setmelanotide (peptide) the cAMP signaling (GloSensor), HEK293 cells with human MC3R, EC50 [1] was 2.1 nM and the cAMP signaling (GloSensor), HEK293 cells with human MC5R, EC50 [2] was 451 nM.
